Measurements published in patent US20200093922A1 (AGENCY FOR SCIENCE TECHNOLOGY AND RESEARCH, published 2020).
Positions count from the first letter of the chain named.

Columns and labels:
[1] = molecular target: T1, biotinylated murine PD-L1 (murine, UniProt Q9EP73 19-238, limits assumed, biotinylated (site not stated)); assay: blocking ELISA of murine PD-L1 binding to murine PD-1 (blocked partner), Example 3
[2] = molecular target: T2, human PD-L1 expressed on transfected HEK 293 cells (human, UniProt Q9NZQ7 19-290); assay: flow cytometry blocking assay: antibody mixed with human PD-1-PE (blocked partner), added to HEK293 cells transfected with human PD-L1
T2 construct: whole, on cells; also called PD-L1 transfected cells; HEK293-6E cells transfected with human PD-L1
Text: Cells were washed 3 times with PBS and all data were collected on a BD FACSCanto II (BD Bioscience) and analysed on BD FACSDiva software (BD Bioscience).

[3] = molecular target: T3, PD-L1 on MDA-MB-231 human breast cancer cells (human, UniProt Q9NZQ7 19-290); assay: flow cytometry on MDA-MB-231 cells expressing PD-L1, MFI against IgG1 (nM)
T3 construct: whole, on cells; also called cells expressing PD-L1

[4] = molecular target: T4, human LAG-3 (human, UniProt P18627 23-450, limits assumed); assay: ELISA on coated antigen (sheet label huLAG-3-Fc)
T4 construct: also called hu LAG-3
T4 sequence (looked up): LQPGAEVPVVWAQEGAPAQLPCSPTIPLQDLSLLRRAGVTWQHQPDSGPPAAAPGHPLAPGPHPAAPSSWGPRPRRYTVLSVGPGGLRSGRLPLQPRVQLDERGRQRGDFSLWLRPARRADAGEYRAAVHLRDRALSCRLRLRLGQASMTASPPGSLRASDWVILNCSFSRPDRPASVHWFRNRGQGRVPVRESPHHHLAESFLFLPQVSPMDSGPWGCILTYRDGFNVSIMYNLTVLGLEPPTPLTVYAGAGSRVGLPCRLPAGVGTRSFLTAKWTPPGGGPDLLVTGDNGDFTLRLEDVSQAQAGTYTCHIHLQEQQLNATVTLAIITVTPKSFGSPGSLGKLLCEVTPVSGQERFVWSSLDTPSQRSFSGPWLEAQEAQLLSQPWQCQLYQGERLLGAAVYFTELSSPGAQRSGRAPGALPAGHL

[5] = molecular target: T5, human CD28 (human, UniProt P10747 19-152, limits assumed); assay: ELISA on coated antigen (sheet label huCD28-Fc)
T5 construct: also called hu CD28

[6] = molecular target: T6, biotinylated human PD-L1 (human, UniProt Q9NZQ7 19-238, limits assumed, biotinylated (site not stated)); assay: ELISA: antibody coated at 2 ug/mL, biotinylated human PD-L1 titrated (x axis Human PD-L1, nM), streptavidin-HRP
Method: Binding was measured by ELISA. Antibodies were coated onto maxisorp plates at 2 μg/mL in coating buffer and incubated overnight at 4° C. The next day, plates were washed with wash buffer (PBS+0.05% Tween-20), and blocker with casein for 1 hour, at room temperature. Plates were then washed again using wash buffer. […] Plates were then washed again using wash buffer. […] Plates were then washed again using wash buffer. Finally, TMB was added to develop the ELISA; TMB conversion by HRP was stopped using 1M H-Cl.

[7] = molecular target: T7, human CTLA-4 (human, UniProt P16410 36-162, limits assumed); assay: ELISA on coated antigen (sheet label huCTL-A4)
T7 construct: also called hu CTL-A4

[8] = molecular target: T8, human PD-L2 (human, UniProt Q9BQ51 20-220, limits assumed); assay: ELISA on coated antigen (sheet label huPD-L2-Fc)
T8 construct: also called hu PD-L2
T8 sequence (looked up): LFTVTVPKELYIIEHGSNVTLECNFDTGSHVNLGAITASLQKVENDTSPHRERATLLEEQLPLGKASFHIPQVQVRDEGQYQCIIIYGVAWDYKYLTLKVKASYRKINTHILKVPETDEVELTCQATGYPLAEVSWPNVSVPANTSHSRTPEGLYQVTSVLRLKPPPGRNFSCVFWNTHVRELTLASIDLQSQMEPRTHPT

[9] = molecular target: T9, human ICOS (human, UniProt Q9Y6W8 21-140, limits assumed); assay: ELISA on coated antigen (sheet label huICOS-Fc)
T9 construct: also called hu ICOS
T9 sequence (looked up): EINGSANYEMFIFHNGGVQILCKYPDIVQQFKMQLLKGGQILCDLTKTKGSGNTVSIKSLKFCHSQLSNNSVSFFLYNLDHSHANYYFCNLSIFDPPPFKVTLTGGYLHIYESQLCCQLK

[10] = molecular target: T10, human BTLA (human, UniProt Q7Z6A9 31-151, limits assumed); assay: ELISA on coated antigen (sheet label huBTLA-Fc)
T10 construct: also called hu BLTA

[11] = molecular target: T11, human PD-1 (ELISA antigen of Example 8) (human, UniProt Q15116 25-167, limits assumed); assay: ELISA on coated antigen (sheet label huPD-1-Fc)
T11 construct: also called hu PD-1

[12] = molecular target: T6, biotinylated human PD-L1; assay: avidity ELISA: biotinylated human PD-L1 at 0.2 ug/mL on neutravidin, antibody titrated (x axis IgG, nM), anti-human Fc-HRP
Method: Neutravidin was coated onto maxisorp plates at 2 μg/mL in coating buffer and incubated overnight at 4° C. The next day, plates were washed with wash buffer (PBS+0.05% Tween-20), and blocker with casein for 1 hour, at room temperature. Plates were then washed again using wash buffer. […] Plates were then washed again using wash buffer. The different antibodies were then added at various concentrations, and incubated for 1 hour at room temperature. Plates were then washed again using wash buffer. Anti-human Fc-HRP was then added and incubated for 1 hour at room temperature. Plates were then washed again using wash buffer. Finally, TMB was added to develop the ELISA; TMB conversion by HRP was stopped using 1M H-Cl.

[13] = molecular target: PD-L1 (blocking ELISA of Example 13) (Homo sapiens (Human), UniProt Q9NZQ7 19-238); assay: blocking ELISA: antibody pre-incubated with PD-L1, added to coated PD-1 (blocked partner), PD-1-bound PD-L1 detected
[14] = molecular target: T12, human TIM-3 (human, UniProt Q8TDQ0 22-200, limits assumed); assay: ELISA on coated antigen (sheet label huTIM-3-Fc)
T12 construct: also called hu TIM-3

[15] = molecular target: T13, human PD-L1 coupled to human Fc (human, UniProt Q9NZQ7 19-239, limits assumed); assay: ELISA on coated human PD-L1-Fc, Fab detected with anti-human Fab-HRP, absorbance 450-670 nm
T13 construct: also called human PD-L1-Fc; not shown: human Fc
Method: (§1) After 90 minutes at room temperature under agitation and extensive washes, a goat anti-human Fab antibody coupled to HRP was added. One hour later, plates were washed and TMB substrate added. The reaction was stopped with 1M HCl and optical density measured at 450 nm with a reference at 670 nm.

[16] = molecular target: T6, biotinylated human PD-L1; assay: blocking ELISA: biotinylated human PD-L1 pre-incubated with Fab, then added to coated human PD-1-Fc (blocked partner), streptavidin-HRP
[17] = molecular target: T1, biotinylated murine PD-L1; assay: blocking ELISA: biotinylated murine PD-L1 pre-incubated with Fab, then added to coated murine PD-1-Fc (blocked partner), streptavidin-HRP
[18] = molecular target: T14, murine PD-L1 coupled to human Fc (murine, UniProt Q9EP73 19-238, limits assumed); assay: ELISA on coated murine PD-L1-Fc, Fab detected with anti-human Fab-HRP, absorbance 450-670 nm
T14 construct: also called murine PD-L1-Fc; mouse PD-L1 coupled to Fc; not shown: human Fc
Method: as §1

[19] = molecular target: T15, human PD-L1 (ELISA antigen, construct not stated) (human, UniProt Q9NZQ7 19-238, limits assumed); assay: ELISA of Fab clones with human PD-L1 as antigen
T15 construct: The construct is not described; also called hu PD-L1
T15 sequence (Q9NZQ7 19-238 limits assumed): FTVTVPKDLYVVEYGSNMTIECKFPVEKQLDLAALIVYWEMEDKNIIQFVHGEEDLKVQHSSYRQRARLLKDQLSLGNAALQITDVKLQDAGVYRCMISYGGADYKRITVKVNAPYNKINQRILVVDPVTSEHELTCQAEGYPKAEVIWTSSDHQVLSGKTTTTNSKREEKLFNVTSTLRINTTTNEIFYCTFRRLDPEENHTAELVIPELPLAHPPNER

T6 sequence (Q9NZQ7 19-238 limits assumed): as above
T14 sequence (Q9EP73 19-238 limits assumed): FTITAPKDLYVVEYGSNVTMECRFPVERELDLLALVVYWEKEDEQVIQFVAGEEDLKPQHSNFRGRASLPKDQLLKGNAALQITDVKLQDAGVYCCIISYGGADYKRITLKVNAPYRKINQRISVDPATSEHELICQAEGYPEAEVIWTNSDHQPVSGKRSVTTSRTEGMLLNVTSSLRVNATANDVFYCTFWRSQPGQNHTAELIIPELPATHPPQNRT
T1 sequence (Q9EP73 19-238 limits assumed): as above
T2 sequence (Q9NZQ7 19-290): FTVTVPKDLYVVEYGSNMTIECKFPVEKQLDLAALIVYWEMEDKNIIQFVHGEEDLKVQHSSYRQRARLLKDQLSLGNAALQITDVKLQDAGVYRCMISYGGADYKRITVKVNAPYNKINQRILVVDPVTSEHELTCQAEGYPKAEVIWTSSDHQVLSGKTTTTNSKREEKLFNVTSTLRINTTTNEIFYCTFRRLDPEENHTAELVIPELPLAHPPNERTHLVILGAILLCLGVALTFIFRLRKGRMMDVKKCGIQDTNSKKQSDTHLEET
Sequence of PD-L1 (blocking ELISA of Example 13) (Q9NZQ7 19-238 limits assumed): as the sequence (Q9NZQ7 19-238 limits assumed) above
T3 sequence (Q9NZQ7 19-290): as the sequence (Q9NZQ7 19-290) above
T10 sequence (Q7Z6A9 31-151 limits assumed): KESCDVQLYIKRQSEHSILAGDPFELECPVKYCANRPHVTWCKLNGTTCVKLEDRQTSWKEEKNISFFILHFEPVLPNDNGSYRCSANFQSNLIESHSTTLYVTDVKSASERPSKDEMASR
T11 sequence (Q15116 25-167 limits assumed): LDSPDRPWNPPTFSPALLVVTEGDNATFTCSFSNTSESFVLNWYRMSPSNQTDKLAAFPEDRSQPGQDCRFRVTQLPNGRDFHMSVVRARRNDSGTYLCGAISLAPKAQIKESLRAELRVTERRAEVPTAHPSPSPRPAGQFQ
T13 sequence (Q9NZQ7 19-239 limits assumed): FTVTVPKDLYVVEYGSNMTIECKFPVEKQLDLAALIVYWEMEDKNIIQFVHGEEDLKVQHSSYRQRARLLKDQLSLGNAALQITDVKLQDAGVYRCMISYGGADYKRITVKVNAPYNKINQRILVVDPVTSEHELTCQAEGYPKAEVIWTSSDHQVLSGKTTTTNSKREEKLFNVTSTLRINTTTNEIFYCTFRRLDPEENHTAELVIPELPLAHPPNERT
T7 sequence (P16410 36-162 limits assumed): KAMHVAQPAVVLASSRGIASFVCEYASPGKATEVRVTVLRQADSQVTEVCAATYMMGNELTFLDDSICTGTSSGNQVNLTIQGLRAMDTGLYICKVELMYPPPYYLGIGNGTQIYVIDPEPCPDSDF

B1: anti-PD-L1 antibody H12 in IgG1 format (antibody, V domains shown)
VH: EVQLVQSGAEVKKPGASVKVSCKASGGTFSSYAISWVRQAPGQGLEWMGRIIPILGIANYAQKFQGRVTITADKSTSTAYMELSSLRSEDTAVYYCARSGHGYSYGAFDYWGQGTL
VL: QSVLTQPPSVSGAPGQRVTISCTGSSSNIGAGYDVHWYQQLPGTAPKLLIYGNSNRPSGVPDRFSGSKSGTSASLAITGLQAEDEADYYCQSYDSSLSGSYVVFGGGTKLTVL
notes: IgG1; also called H12 (IgG1); H12-IgG1
[1]
  IC50 (read off the curve): ~1 nM
[2]
  IC50 (read off the curve): ~8 nM
[3]
  EC50 (read off the curve): ~200 nM

B2: anti-PD-L1 antibody H12 (format not stated) (antibody, V domains shown)
VH: B1 VH
VL: B1 VL
[4]
  binding result: no binding
[5]
  binding result: no binding
[6]
  EC50 (read off the curve): ~0.4 nM
[7]
  binding result: no binding
[8]
  binding result: no binding
[9]
  binding result: no binding
[10]
  binding result: no binding
[11]
  binding result: no binding
[12]
  EC50 (read off the curve): ~0.1 nM
[13]
  IC50 (read off the curve): ~2 nM
[14]
  binding result: no binding

B3: anti-PD-L1 antibody H12 in IgG4 format (antibody, V domains shown)
VH: B1 VH
VL: B1 VL
notes: IgG4; also called H12-IgG4
[2]
  IC50 (read off the curve): ~8 nM

B4: anti-PD-L1 antibody clone A1, Fab format (Fab, V domains shown)
VH: QVQLQQSGAEVKKPGSSVKVSCKASGGTFSSYAISWVRQAPGQGLEWMGRIIPILGIANYAQKFQGRVTITADKSTSTAYMELSSLRSEDTAVYYCARGGSYGSLYAFDIWGQGTMVTVSS
VL: QSVLTQPPSVSAAPGQRVSISCSGRSSNIASHDVFWYQQLPGTAPKIVMYETNKRPWGIPDRFSGSKSGTSATLDIAGLQTGDEADYYCGAWDSGLTGMLFGGGTKVTVL
notes: From a human phage display library and tested as Fab; the Fab constant domains are not
[15]
  binding result: binds
[16]
  binding result: binds
[17]
  binding result: binds
[18]
  binding result: binds
[19]
  binding result: binds

B5: anti-PD-L1 antibody H12_GL in IgG1 format (antibody, V domains shown)
VH: B4 VH with Q5V, G99S, S101H, Y102G, G103Y, L105Y, Y106G, I110Y, M116L
VL: B1 VL
notes: H12 with its framework reverted to germline-like; IgG1; also called H12_GL-IgG1
[2]
  IC50 (read off the curve): ~8 nM

B6: anti-PD-L1 antibody H12_GL in IgG4 format (antibody, V domains shown)
VH: B4 VH with Q5V, G99S, S101H, Y102G, G103Y, L105Y, Y106G, I110Y, M116L
VL: B1 VL
notes: IgG4; also called H12_GL-IgG4
[2]
  IC50 (read off the curve): ~8 nM

B7: anti-PD-L1 antibody clone C2, Fab format (Fab, V domains shown)
VH: B4 VH with M116T
VL: SYELTQPPSVSVAPGKTTRITCGGDNIGRKSVHWYQQRPGQAPLLLVYDDGDRPSGIPDRFSGSNSGNTATLTISGTQAMDEADYYCQAWDSTVVFGGGTRLTVL
notes: Tested as Fab
[16]
  IC50 (read off the curve): ~50 nM
[17]
  binding result: binds
[18]
  binding result: binds

B8: anti-PD-L1 antibody clone C4, Fab format (Fab, V domains shown)
VH: QVQLQQSGAEVKKPGSSVKVSCKASGGTFSSYAISWVRQAPGQGLEWMGRIIPILGIANYAQKFQGRVTITADKSTSTAYMELSSLRSEDTAVYYCARGGYGGNSLYAFDIWGQGTMVTVSS
VL: QSVVTQPPSVSAAPGQKVTISCSGSSSNIGNNYVSWYQQLPGTAPKLLIYDNNERLSGIPDRFSGSKSGTSATLGISGLQTGDEADYYCGTWDSSLSVVVFGGGTKLTVL
notes: Tested as Fab
[16]
  IC50 (read off the curve): ~50 nM
[17]
  binding result: binds
[18]
  binding result: binds

B9: anti-PD-L1 antibody C4 in IgG1 format (antibody, V domains shown)
VH: B8 VH
VL: B8 VL
notes: also called C4 IgG1
[3]
  EC50 (read off the curve): ~200 nM

B10: anti-PD-L1 antibody C4 (format not stated) (antibody, V domains shown)
VH: B8 VH
VL: B8 VL
[6]
  EC50 (read off the curve): ~0.8 nM
[12]
  EC50 (read off the curve): ~1 nM
[13]
  IC50 (read off the curve): ~2 nM
